Measurements from article PMC9384988, “The TPR domain of PgaA is a multifunctional scaffold that binds PNAG and modulates PgaB-dependent polymer processing” (PLoS Pathogens, 2022).

Key:
PgaA-220-367 = biological target: T1, PgaA-220-367 (Escherichia coli, UniProt P69434); test: Tryptophan quenching, wild-type PgaA-220-367; assay type: binding, E. coli; conditions: substrate concentration 4.5 mM
T1 construct: His6 (thrombin cleavable, pET28) (N); made in house; host or cells: E. coli BL21 CodonPlus (DE3)
T1 sequence (P69434 220-367): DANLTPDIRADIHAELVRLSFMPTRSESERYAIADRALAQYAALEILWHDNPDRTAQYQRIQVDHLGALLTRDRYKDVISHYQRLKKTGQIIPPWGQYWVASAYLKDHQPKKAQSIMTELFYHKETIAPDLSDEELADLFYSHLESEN
Protocol: Fluorescence measurements were carried out at 20°C in a quartz cuvette (type no. 115F-QS; Hellma Analytics) using a PTI QuantaMaster 80 steady-state fluorometer (Photon Technology International), with a 4-nm bandwidth for both excitation and emission and a speed of 2 nm/s. Fluorescence spectra were collected between 300 nm and 400 nm with an excitation wavelength of 280 nm and a peak emission wavelength of 334 nm. All samples were prepared in triplicates 10 minutes ahead of the collection in a solution containing 1 μM protein, 20 mM Tris buffer pH 8.0, 150 mM sodium chloride and 1 mM concentrations of dPNAG oligomers. Data measured for each sample was corrected for ligand fluorescence and inner filter effect. […] To obtain an approximate binding affinity the dPNAG oligomer concentration was varied between 0–10 mM.

His-PgaA (PgaA-32-807) = biological target: T2, His-PgaA (PgaA-32-807) (E. coli K-12, UniProt P69434 32-807); test: co-purification (NiNTA, gel filtration) with SDS-PAGE; His-PgaA and PgaB constructs co-expressed in BL21, extracted with 1% DDM, purified by NiNTA and gel filtration (20 mM Tris pH 8, 150 mM NaCl, 0.1% DDM); Coomassie gel of the purified complexes; conditions: partners not purified
T2 construct: also called His-PgaA-32-807; full-length PgaA; source: E. coli BL21: co-expressed with PgaB, in DDM extract of the lysate pellet (pull-down); expressed alone or with PgaB and purified (NiNTA, gel filtration, DDM); not shown: His6, N-terminal, kept
T2 sequence (looked up): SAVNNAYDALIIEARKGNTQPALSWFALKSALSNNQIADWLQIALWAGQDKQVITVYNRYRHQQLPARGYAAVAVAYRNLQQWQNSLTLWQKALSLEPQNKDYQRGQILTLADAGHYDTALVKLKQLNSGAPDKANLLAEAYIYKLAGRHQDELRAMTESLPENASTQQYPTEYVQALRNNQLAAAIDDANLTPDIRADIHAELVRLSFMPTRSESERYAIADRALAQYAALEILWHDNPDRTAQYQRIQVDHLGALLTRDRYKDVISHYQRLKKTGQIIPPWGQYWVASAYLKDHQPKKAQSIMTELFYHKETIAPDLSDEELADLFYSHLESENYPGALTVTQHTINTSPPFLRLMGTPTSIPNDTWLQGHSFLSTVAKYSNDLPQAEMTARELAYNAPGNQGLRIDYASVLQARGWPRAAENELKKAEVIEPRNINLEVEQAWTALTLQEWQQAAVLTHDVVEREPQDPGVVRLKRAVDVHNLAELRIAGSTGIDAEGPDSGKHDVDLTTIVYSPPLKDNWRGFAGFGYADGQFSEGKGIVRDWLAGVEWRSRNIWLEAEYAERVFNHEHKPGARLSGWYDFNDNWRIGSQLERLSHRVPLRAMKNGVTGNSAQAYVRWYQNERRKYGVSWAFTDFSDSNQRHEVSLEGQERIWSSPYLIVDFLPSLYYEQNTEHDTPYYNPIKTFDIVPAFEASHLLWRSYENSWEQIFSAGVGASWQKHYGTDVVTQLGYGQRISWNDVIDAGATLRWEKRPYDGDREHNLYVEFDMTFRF

[1] = Fluorescamine de-acetylation assay; assay type: biochemical; conditions: 30 μM enzyme and 30 mM PNAG hexamer; fluorescamine readout
Protocol: (§1) To determine whether the modulation of enzyme activity might be a common theme for the TPR domain across synthase-dependent systems, we assayed the deacetylase and glycoside hydrolase activities of PgaB in the presence and absence of PgaA. As we used co-expression to obtain the complexes, a SDS PAGE gel of the purified solutions of PgaA, PgaB and PgaA/B complexes was analyzed to ensure that equal quantities of the protein/protein complex were used (Fig 2A). Consistent with previous published studies, PgaA and PgaB appear to form a 1:1 complex. The deacetylase activity was assessed using a fluorescamine-based assay with fully acetylated PNAG hexamers as the substrate. As fluorescamine detects the presence of primary amines, which are generated during the deacetylation of the PNAG oligosaccharide, this assay provides a direct readout of the deacetylation activity of PgaB. To assess the glycoside hydrolase activity, we used a biofilm disruption assay, which has been used previously to characterize PgaB’s glycosidase activity. In this assay, biofilms of Staphylococcus epidermidis strain SE801 were grown in 96 well plates for 24 h, at which point PgaB was added. After a further 2 h, the reaction was quenched, plates washes and the amount of adherent biofilm remaining quantified using crystal violet staining. […]

[2] = system: Staphylococcus epidermidis strain SE801 biofilms; test: Crystal violet-based biofilm disruption assay (glycoside hydrolase activity); assay type: cell-based; conditions: S. epidermidis SE801 biofilm, 2 h, lower EC50 = higher glycoside hydrolase activity
Protocol: as §1, with “To assess the glycoside hydrolase activity, we used a biofilm disruption assay, which has been used previously to characterize PgaB’s glycosidase activity. In this assay, biofilms of Staphylococcus epidermidis strain SE801 were grown in 96 well plates for 24 h, at which point PgaB was added.” left out
Cultures of S. epidermidis clinical isolate SE801 were grown overnight at 37°C with shaking at 200 rpm in LB broth without antibiotics. […] The remaining dye was solubilized with 100 μl of 95% (v/v) ethanol for 10 min with rotation, after which time the absorbance was measured at 595 nm.

chitin
quenching of the signal at 334nm (PgaA-220-367): 9%

B1: PgaB (PgaB-1-672) (enzyme, E. coli, UniProt P75906 21-672, looked up)
chain: CISQSRTSFIPPQDRESLLAEQPWPHNGFVAISWHNVEDEAADQRFMSVRTSALREQFAWLRENGYQPVSIAQIREAHRGGKPLPEKAVVLTFDDGYQSFYTRVFPILQAFQWPAVWAPVGSWVDTPADKQVKFGDELVDREYFATWQQVREVARSRLVELASHTWNSHYGIQANATGSLLPVYVNRAYFTDHARYETAAEYRERIRLDAVKMTEYLRTKVEVNPHVFVWPYGEANGIAIEELKKLGYDMFFTLESGLANASQLDSIPRVLIANNPSLKEFAQQIITVQEKSPQRIMHIDLDYVYDENLQQMDRNIDVLIQRVKDMQISTVYLQAFADPDGDGLVKEVWFPNRLLPMKADIFSRVAWQLRTRSGVNIYAWMPVLSWDLDPTLTRVKYLPTGEKKAQIHPEQYHRLSPFDDRVRAQVGMLYEDLAGHAAFDGILFHDDALLSDYEDASAPAITAYQQAGFSGSLSEIRQNPEQFKQWARFKSRALTDFTLELSARVKAIRGPHIKTARNIFALPVIQPESEAWFAQNYADFLKSYDWTAIMAMPYLEGVAEKSADQWLIQLTNQIKNIPQAKDKSILELQAQNWQKNGQHQAISSQQLAHWMSLLQLNGVKNYGYYPDNFLHNQPEIDLIRPEFSTAWYPKND
modifications: C21 lipidated (residues 1-20 are a signal sequence that is cleaved during periplasmic targeting)
notes: signal peptide in the construct; Untagged; also called full-length PgaB; untagged PgaB; source: E. coli BL21: co-expressed with His-PgaA constructs, in DDM extract or co-purified; also separately expressed, cell pellet mixed with the PgaA pellet before lysis
stoichiometry N (His-PgaA (PgaA-32-807)): 1

B2: PgaB: soluble E. coli PgaB residues 22–672, de-N-acetylase and glycoside hydrolase (protein)
chain: CISQSRTSFIPPQDRESLLAEQPWPHNGFVAISWHNVEDEAADQRFMSVRTSALREQFAWLRENGYQPVSIAQIREAHRGGKPLPEKAVVLTFDDGYQSFYTRVFPILQAFQWPAVWAPVGSWVDTPADKQVKFGDELVDREYFATWQQVREVARSRLVELASHTWNSHYGIQANATGSLLPVYVNRAYFTDHARYETAAEYRERIRLDAVKMTEYLRTKVEVNPHVFVWPYGEANGIAIEELKKLGYDMFFTLESGLANASQLDSIPRVLIANNPSLKEFAQQIITVQEKSPQRIMHIDLDYVYDENLQQMDRNIDVLIQRVKDMQISTVYLQAFADPDGDGLVKEVWFPNRLLPMKADIFSRVAWQLRTRSGVNIYAWMPVLSWDLDPTLTRVKYLPTGEKKAQIHPEQYHRLSPFDDRVRAQVGMLYEDLAGHAAFDGILFHDDALLSDYEDASAPAITAYQQAGFSGSLSEIRQNPEQFKQWARFKSRALTDFTLELSARVKAIRGPHIKTARNIFALPVIQPESEAWFAQNYADFLKSYDWTAIMAMPYLEGVAEKSADQWLIQLTNQIKNIPQAKDKSILELQAQNWQKNGQHQAISSQQLAHWMSLLQLNGVKNYGYYPDNFLHNQPEIDLIRPEFSTAWYPKND
modifications: C21 lipidated (residues 1-20 are a signal sequence that is cleaved during periplasmic targeting)
notes: soluble E. coli PgaB residues 22–672, de-N-acetylase and glycoside hydrolase
concentration of GlcN produced [1]: 988.6 ± 104.7 µM | EC50 [2]: 302 ± 82.3 nM
